Like-named read-outs stand apart in the source and are kept apart here.
How the values were obtained:
[1] = target: Drosophila melanogaster p38b mitogen-activated protein kinase (D. melanogaster) (UniProt O61443)
[2] = target: Drosophila melanogaster p38b mitogen-activated protein kinase (D. melanogaster) (UniProt O61443); remark: listed apart in the source
[3] = target: Drosophila melanogaster p38b mitogen-activated protein kinase (D. melanogaster) (UniProt O61443); remark: listed apart in the source

Chain of UniProt O61443 (O61443 whole entry): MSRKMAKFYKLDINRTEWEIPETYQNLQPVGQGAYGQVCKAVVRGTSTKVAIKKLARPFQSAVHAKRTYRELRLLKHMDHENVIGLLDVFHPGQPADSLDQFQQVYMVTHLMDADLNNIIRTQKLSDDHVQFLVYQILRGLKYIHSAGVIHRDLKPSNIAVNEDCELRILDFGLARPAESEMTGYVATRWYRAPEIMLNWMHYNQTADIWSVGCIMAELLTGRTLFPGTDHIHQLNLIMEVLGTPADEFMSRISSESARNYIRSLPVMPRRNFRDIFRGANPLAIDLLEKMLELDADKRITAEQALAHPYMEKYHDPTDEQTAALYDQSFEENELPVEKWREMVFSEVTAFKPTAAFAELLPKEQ

Molecule: Drosophila melanogaster Delta class glutathione transferase DmGSTD11b (enzyme)
- fold change of p38b kinase activity toward ATF2 with GST at 1:1 molar ratio (ADP Quest assay) [1]: 7.1 fold
- fold change of p38b kinase activity toward jun with GST at 1:1 molar ratio (ADP Quest assay) [1]: 10 fold

B1: Drosophila melanogaster Delta class glutathione transferase DmGSTD3 (enzyme)
chain: MVGKALGLEFNKKIINTLKGEQMNPDFIKINPQHSIPTLVDNGFTIWESRAILVYLVEKYGKDDALYPKDIQKQAVINQRLYFDMALMYPTLANYYYKAFTTGQFGSEEDYKKVQETFDFLNTFLEGQDYVAGDQYTVADIAILANVSNFDVVGFDISKYPNVARWYDHVKKITPGWEENWAGALDVKKRIEEKQNAAK
- fold change of p38b kinase activity toward ATF2 with GST at 1:1 molar ratio (ADP Quest assay) [1]: 1.8 fold
- fold change of p38b kinase activity toward jun with GST at 1:1 molar ratio (ADP Quest assay) [1]: 2.6 fold

B2: Drosophila melanogaster Delta class glutathione transferase DmGSTD5 (enzyme)
chain: MDFYYSPRGSGCRTVIMVAKALGVKLNMKLLNTLEKDQLKPEFVKLNPQHTIPTLVDNGFSIWESRAIAVYLVEKYGKDDTLFPKDPKKQALVNQRLYFDMGTLYDSFAKYYYPLFHTGKPGSDEDFKKIESSFEYLNIFLEGQNYVAGDHLTVADIAILSTVSTFEIFDFDLNKYPNVARWYANAKKVTPGWEENWKGAVELKGVFDARQAAAKQ
- fold change of p38b kinase activity toward ATF2 with GST at 1:1 molar ratio (ADP Quest assay) [1]: 1.4 fold
- fold change of p38b kinase activity toward jun with GST at 1:1 molar ratio (ADP Quest assay) [1]: 1.6 fold
- decrease of GST activity toward CDNB after incubation with p38b at 1:1 molar ratio [2]: 10 % decrease
- decrease of GST activity toward DCNB after incubation with p38b at 1:1 molar ratio [2]: 40 % decrease
- decrease of GST activity toward CDNB after incubation with p38b at 1:1 molar ratio, as told in the discussion [3]: 8 % decrease
- decrease of GST activity toward DCNB after incubation with p38b at 1:1 molar ratio, as told in the discussion [3]: 36 % decrease
- fold change of p38b kinase activity toward jun with GST at 1:1 molar ratio (ADP Quest assay), as told in the discussion [3]: 1.5 fold

B3: Drosophila melanogaster Delta class glutathione transferase DmGSTD2 (enzyme)
chain: MDFYYMPGGGGCRTVIMVAKALGLELNKKLLNTMEGEQLKPEFVKLNPQHTIPTLVDNGFSIWESRAIAVYLVEKYGKDDYLLPNDPKKRAVINQRLYFDMGTLYESFAKYYYPLFRTGKPGSDEDLKRIETAFGFLDTFLEGQEYVAGDQLTVADIAILSTVSTFEVSEFDFSKYSNVSRWYDNAKKVTPGWDENWEGLMAMKALFDARKLAAK
- increase of GST activity toward DCNB after incubation with p38b at 1:1 molar ratio [2]: 37 % increase
- decrease of GST activity toward CDNB after incubation with p38b at 1:1 molar ratio [3]: 5 % decrease

B4: Drosophila melanogaster Delta class glutathione transferase DmGSTD8 (enzyme)
chain: MDFYYHPCSAPCRSVIMTAKALGVDLNMKLLKVMDGEQLKPEFVKLNPQHCIPTLVDDGFSIWESRAILIYLVEKYGADDSLYPSDPQKKAVVNQRLYFDMGTLFQSFVEAIYPQIRNNHPADPEAMQKVDSAFGHLDTFLEDQEYVAGDCLTIADIALLASVSTFEVVDFDIAQYPNVARWYENAKEVTPGWEENWDGVQLIKKLVQERNE
- fold change of p38b kinase activity toward ATF2 with GST at 1:1 molar ratio (ADP Quest assay) [1]: 6.5 fold
- fold change of p38b kinase activity toward jun with GST at 1:1 molar ratio (ADP Quest assay) [1]: 8.1 fold
- increase of GST activity toward DCNB after incubation with p38b at 1:1 molar ratio [2]: 30 % increase

B5: Drosophila melanogaster Delta class glutathione transferase DmGSTD7 (enzyme)
chain: MPNLDLYNFPMAPASRAIQMVAKALGLELNSKLINTMEGDQLKPEFVRINPQHTIPTLVDNGFVIWESRAIAVYLVEKYGKPDSPLYPNDPQKRALINQRLYFDMGTLYDALTKYFFLIFRTGKFGDQEALDKVNSAFGFLNTFLEGQDFVAGSQLTVADIVILATVSTVEWFSFDLSKFPNVERWLKNAPKVTPGWEQNLESLQQGKKFLQDLQAAKEKEVKA
- increase of GST activity toward DCNB after incubation with p38b at 1:1 molar ratio [2]: 10 % increase
